Data set [1] has as its system Bay seeds extractable C12-preferring acyl-ACP thioesterase and lauroyl-CoA hydrolysis activity. The experiment in a line: Extractable hydrolysis activity at two stages of Bay seed development. Type of data set: biochemical, Umbellularia californica. As to conditions: cpm ether-extractable radioactivity. The protocol:
(§1) To assay for C12 thioesterase activity the following mixture is incubated at 30° for 30 min: "buffer" comprising 7mM KH2PO4-KOH pH 8, 20% v/v glycerol, 1mM dithiothreitol (DTT), 0.1% v/v Triton X100; sample to be tested for activity in the same or similar buffer as the "extraction buffer" described in Example 2; and 5µl of ^14C-radiolabeled lauroyl-ACP substrate for a total volume of 100µl and final lauroyl-ACP concentration of 0.5µM. Lauroyl-ACP substrate is prepared according to the method of Rock et al (Methods in Enzymology (1981) 72:397-403), using ACP prepared from Escherichia coli by the method of Rock and Cronan (Methods in Enzymology (1981) 71:341-351). The laurate is radiolabeled in the carboxylate group at a specific radioactivity of 50-60µCi/µmol.
The reaction is stopped by adding 0.5ml cold (0°) 10% v/v acetic acid. The fatty acid product of the hydrolytic enzyme action is extracted away from the unhydrolyzed substrate by adding 1ml diethyl ether and mixing vigorously. After settling for a few minutes the upper ether layer is transferred to 5ml scintillation fluid for determination of radioactivity by liquid scintillation spectrometry. Additional ether extractions may be performed to recover remaining traces of the reaction product for more accurate quantitation of the enzyme activity if desired. The amount of ether-extracted radioactivity is a direct measure of C12-preferring acyl-ACP thioesterase activity, provided the amount of enzyme is not sufficient to hydrolyze more than about 25% of the substrate. With greater activity than this the relationship between radioactivity in the ether layer and the quantity of enzyme becomes markedly nonlinear. The enzyme preparation must then be diluted appropriately to bring the activity into the linear range of the assay.
Further evidence that the C12-preferring acyl-ACP thioesterase is involved in the biosynthesis of laurate groups that predominate in the Bay seeds comes from a comparison of the extractable activity of the enzyme at two different stages of seed development. As shown in the following table, Table 5, very young seeds, which contain only long-chain fatty acids and insignificant amounts of laurate, yield much less C12-preferring ACP thioesterase than older seeds that have accumulated significant amounts of laurate. Thus it appears that significant activity of this enzyme is only present when the seeds are accumulating laurate. Additionally, there appears to be much less difference in lauroyl-CoA hydrolysis activity, consistent with their being different enzymes as discussed above in Example 5.

The target of data set [2] is T1, Bay C12-preferring acyl-ACP thioesterase (Umbellularia californica, UniProt Q41635).
T1 sequence (Q41635 84-382): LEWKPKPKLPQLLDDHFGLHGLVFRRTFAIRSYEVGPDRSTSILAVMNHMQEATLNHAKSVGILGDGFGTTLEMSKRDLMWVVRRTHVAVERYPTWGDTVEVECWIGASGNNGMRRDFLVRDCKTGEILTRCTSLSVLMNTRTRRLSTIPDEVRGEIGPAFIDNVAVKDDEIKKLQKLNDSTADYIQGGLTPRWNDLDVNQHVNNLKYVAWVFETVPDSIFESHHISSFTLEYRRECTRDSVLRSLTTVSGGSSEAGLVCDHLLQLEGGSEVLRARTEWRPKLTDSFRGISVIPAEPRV
Nature of the data set: Substrate hydrolysis (ACP versus CoA) by peak gradient-eluted fraction of the ACP column. Type of data set: biochemical. On the set-up: The cotyledons from such seeds are dissected from the other seed parts and stored frozen at -70°; This comprises the source tissue for enzyme extraction; from tissue; host or cells: immature seed cotyledons of Umbellularia californica. The note with it: cpm of ether-extractable product. The protocol: as §1
(§2) The reaction is stopped by adding 0.5ml cold (0°) 10% v/v acetic acid. […] After settling for a few minutes the upper ether layer is transferred to 5ml scintillation fluid for determination of radioactivity by liquid scintillation spectrometry. Additional ether extractions may be performed to recover remaining traces of the reaction product for more accurate quantitation of the enzyme activity if desired. The amount of ether-extracted radioactivity is a direct measure of C12-preferring acyl-ACP thioesterase activity, provided the amount of enzyme is not sufficient to hydrolyze more than about 25% of the substrate. […]

Data set [3] relates to material which fails to bind the ACP column (Lauroyl-CoA hydrolysis activity). The experiment in a line: Substrate hydrolysis (ACP versus CoA) by peak unbound fraction of the ACP column. Type of data set: biochemical, Umbellularia californica. The note with it: Flow-through (nonbinding) fraction; cpm of ether-extractable product. The protocol: as §1, §2

The record followed here is patent EP1298214A2, “Plant thioesterases” (Calgene LLC, priority 1990, dated 1991).

For the substance lauroyl-ACP [12:0-ACP], the results for the “Hydrolysis / Thioesterase Activity In Assays” value in data set [1] (Normal Seeds (2g/cotyledon pair)) and in data set [1] (Young Seeds (0.5g/cotyledon pair)) were 4704 cpm and 376 cpm, respectively. The results for the “Activity on Substrate” value in data set [2] and in data set [3] were 2772 cpm and 300 cpm, respectively.
